Data: the supplement of paper PMC7877785
± gives the uncertainty stated by the source.

Assay: self-splicing fitness, log relative to wild type (ln ratio); higher = more splicing; Tetrahymena group I intron in knt gene, E. coli kanamycin selection, DiMSum; sequences stand for … in CUCUCU…GGAGGGAAAAGUUAUCAGGCAUGCACCUGGUAGCUAGUCUUUAAACCAAUAGAUUGCAUCGGUUUAAAAGGCAAGACCGUCAAAUUGCGGGAAAGGGGUCAACAGCCGUUCAGUACCAAGUCUCAGGGGAAACUUUGAGAUGGCCUUGCAAAGGGUAUGGUAAUAAGCUGACGGACAUGGUCCUAACCACGCAGCCAAGUCCUAAGUCAACAGAUCUUCUGUUGAUAUGGAUGCAGUUCACAGACUAAAUGUCGGUCGGGGAAGAUGUAUUCUUCUCAUAAGAUAUAGUCGGACCUCUCCUUAAUGGGAGCUAGCGGAUGAAGUGAUGCAACACUGGAGCCGCUGGGAACUAAUUUGUAUGCGAAAGUAUAUUGAUUAGUUUUGGAGUACUCGUGGUCG
In short: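 DiMSum derived fitness as the error-weighted combination of fold changes across replicates, kanamycin versus no kanamycin, normalised to wild type. E. coli BL21(DE3) held the library, which randomised all eight P1ex-region intron nucleotides within the knt kanamycin-resistance gene on pET-22b(+). Six replicate transformations grew overnight at 37°C or 30°C on LB agar with or without 25 μg/mL kanamycin, also containing 100 μg/mL carbenicillin, 50 μM IPTG and 0.2% rhamnose, and pooled colonies were amplicon-sequenced on an Illumina HiSeq 2500.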

Sequence	self-splicing fitness (ln) (30 °C)	self-splicing fitness (ln) (37 °C)
GAGCAGCAAUAUUACGACCC	0.0587 ± 0.081	-0.0685 ± 0.098
GAGCAGCAAUAUUACGACUA	-0.925 ± 0.097	0.275 ± 0.11
GAGCAGCAAUAUUACGAGCG	-2.3 ± 0.092	-1.11 ± 0.11
GAGCAGCAAUAUUACGAGGA	-2.48 ± 0.17	-2.89 ± 0.22
GAGCAGCAAUAUUACGAUUG	-2.17 ± 0.083	-2.41 ± 0.17
GAGCAGCAAUAUUACGCAUA	-1.11 ± 0.099	-0.606 ± 0.14
GAGCAGCAAUAUUACGCGUG	-1.92 ± 0.15	-1.66 ± 0.18
GAGCAGCAAUAUUACGCUCU	-3.46 ± 0.28	
GAGCAGCAAUAUUACGCUGA	-2.8 ± 0.19	-2.13 ± 0.2
GAGCAGCAAUAUUACGGAAG	-3.65 ± 0.21	-3.24 ± 0.26
GAGCAGCAAUAUUACGGCAU	-0.308 ± 0.081	-0.549 ± 0.094
GAGCAGCAAUAUUACGGCUA	-0.634 ± 0.1	-0.0591 ± 0.15
GAGCAGCAAUAUUACGGGUC	-3.07 ± 0.18	-1.91 ± 0.17
GAGCAGCAAUAUUACGGUGU	-2.84 ± 0.093	-1.56 ± 0.09
GAGCAGCAAUAUUACGUAAA	-1.89 ± 0.14	-1.13 ± 0.14
GAGCAGCAAUAUUACGUACC	-0.46 ± 0.12	-0.225 ± 0.14
GAGCAGCAAUAUUACGUCGG	-4.09 ± 0.31	-3.07 ± 0.28
GAGCAGCAAUAUUACGUGAG	-2.06 ± 0.069	-0.264 ± 0.07
GAGCAGCAAUAUUACGUUGU	-3.37 ± 0.14	-2.16 ± 0.15
GAGCAGCAAUAUUACGUUUC	-3.37 ± 0.14	-2.2 ± 0.22
GAGGAGCAAUAUUACGAAGA	-2.19 ± 0.24	-1.95 ± 0.32
GAGGAGCAAUAUUACGACCU	-2.45 ± 0.41	
GAGGAGCAAUAUUACGAUCC	-1.49 ± 0.31	-1.12 ± 0.27
GAGGAGCAAUAUUACGCCAA		-1.6 ± 0.48
GAGGAGCAAUAUUACGCCAU	-3.46 ± 0.47	-2.37 ± 0.41

Sequence	self-splicing fitness (ln) (30 °C)	self-splicing fitness (ln) (37 °C)
GAGGAGCAAUAUUACGCCUA	-1.68 ± 0.27	-0.955 ± 0.16
GAGGAGCAAUAUUACGCGUU	-3.99 ± 0.39	-2.2 ± 0.36
GAGGAGCAAUAUUACGCUCC		-0.714 ± 0.48
GAGGAGCAAUAUUACGCUGA	-2.84 ± 0.49	-2.07 ± 0.34
GAGGAGCAAUAUUACGGACG	-3.42 ± 0.36	-0.785 ± 0.49
GAGGAGCAAUAUUACGGACU	-1.49 ± 0.14	-1.22 ± 0.28
GAGGAGCAAUAUUACGGAGU		-2.57 ± 0.34
GAGGAGCAAUAUUACGGAUG	-3.77 ± 0.27	-2.48 ± 0.24
GAGGAGCAAUAUUACGGGCC	-2.4 ± 0.4	
GAGGAGCAAUAUUACGUACA	-3.14 ± 0.32	-0.612 ± 0.2
GAGGAGCAAUAUUACGUGCA	-3.41 ± 0.34	-1.31 ± 0.17
GAGGAGCAAUAUUACGUGCU	-4.62 ± 0.42	-2.32 ± 0.21
GAGGAGCAAUAUUACGUUCG	-1.89 ± 0.2	-1.27 ± 0.23
GAGGAGCAAUAUUACGUUCU	-2.2 ± 0.2	-2.4 ± 0.33
GAGGAGCAAUAUUACGUUGG		-1.46 ± 0.42
GAGUAGCAAUAUUACGACGC	-0.488 ± 0.12	0.137 ± 0.14
GAGUAGCAAUAUUACGAGCA	-2.06 ± 0.21	0.532 ± 0.14
GAGUAGCAAUAUUACGAGGC		-2.86 ± 0.44
GAGUAGCAAUAUUACGAUAC	-2.31 ± 0.21	-2.92 ± 0.24
GAGUAGCAAUAUUACGCAGA	-3 ± 0.26	-2.41 ± 0.31
GAGUAGCAAUAUUACGCCGC	-2.89 ± 0.25	-1.29 ± 0.33
GAGUAGCAAUAUUACGCCGG	-1.99 ± 0.35	
GAGUAGCAAUAUUACGCCGU		-1.08 ± 0.27
GAGUAGCAAUAUUACGCGAU	-2.26 ± 0.21	-2.21 ± 0.39
GAGUAGCAAUAUUACGCGCA	-1.93 ± 0.15	-0.701 ± 0.2

Sequence	self-splicing fitness (ln) (30 °C)	self-splicing fitness (ln) (37 °C)
GAGUAGCAAUAUUACGCGUU	-2.44 ± 0.095	-0.8 ± 0.09
GAGUAGCAAUAUUACGGAAA	-3.15 ± 0.17	-2.03 ± 0.12
GAGUAGCAAUAUUACGGAUC	-0.928 ± 0.092	-0.167 ± 0.12
GAGUAGCAAUAUUACGGCCA	-1.95 ± 0.18	0.281 ± 0.26
GAGUAGCAAUAUUACGGCCG	-1.24 ± 0.15	-0.0588 ± 0.23
GAGUAGCAAUAUUACGGCGG	-4.56 ± 0.36	-2.02 ± 0.21
GAGUAGCAAUAUUACGGUAC	-2.69 ± 0.37	-2.01 ± 0.33
GAGUAGCAAUAUUACGGUCU	-1.24 ± 0.15	-1.22 ± 0.17
GAGUAGCAAUAUUACGGUUA	-0.885 ± 0.14	-0.497 ± 0.099
GAGUAGCAAUAUUACGGUUU	-0.669 ± 0.092	-0.275 ± 0.091
GAGUAGCAAUAUUACGUACU	-2.67 ± 0.15	-1.67 ± 0.16
GAGUAGCAAUAUUACGUAUG	-2.85 ± 0.13	-2.51 ± 0.19
GAGUAGCAAUAUUACGUCGU	-3.35 ± 0.29	-0.572 ± 0.2
GAGUAGCAAUAUUACGUCUA	-0.203 ± 0.099	-0.00603 ± 0.14
GAGUAGCAAUAUUACGUGCU	-3.42 ± 0.19	-2.31 ± 0.2
GAGUAGCAAUAUUACGUUGU	-2.19 ± 0.17	-1.41 ± 0.16
GAGUAGCAAUAUUACGUUUG	-3.89 ± 0.16	-3.88 ± 0.24
GAUAAGCAAUAUUACGACCU	-0.864 ± 0.086	0.36 ± 0.1
GAUAAGCAAUAUUACGAUAC	-1.52 ± 0.18	-1.63 ± 0.27
GAUAAGCAAUAUUACGAUUA	-0.905 ± 0.12	0.0831 ± 0.12
GAUAAGCAAUAUUACGCAUA	-0.919 ± 0.13	-0.783 ± 0.18
GAUAAGCAAUAUUACGCCCU	-0.569 ± 0.13	0.292 ± 0.15
GAUAAGCAAUAUUACGCCUC		-2.35 ± 0.42
GAUAAGCAAUAUUACGCUAU	-2.91 ± 0.26	-1.01 ± 0.29
GAUAAGCAAUAUUACGCUCC	-1.82 ± 0.34	

Sequence	self-splicing fitness (ln) (30 °C)	self-splicing fitness (ln) (37 °C)
GAUAAGCAAUAUUACGCUGA		-1.31 ± 0.22
GAUAAGCAAUAUUACGGCGA	-0.337 ± 0.12	0.114 ± 0.13
GAUAAGCAAUAUUACGGCGC	0.0448 ± 0.13	-0.881 ± 0.13
GAUAAGCAAUAUUACGGGCA	-1.65 ± 0.12	-0.177 ± 0.13
GAUAAGCAAUAUUACGUGAC	-2.55 ± 0.32	-0.818 ± 0.3
GAUAAGCAAUAUUACGUGAG	-2.14 ± 0.096	-0.113 ± 0.099
GAUAAGCAAUAUUACGUUAA	-3.91 ± 0.43	-1.52 ± 0.17
GAUAAGCAAUAUUACGUUCG	-1.42 ± 0.098	-1.05 ± 0.14
GAUAAGCAAUAUUACGUUGU	-2.12 ± 0.089	-2.6 ± 0.11
GAUAAGCAAUAUUACGUUUU	-2.39 ± 0.098	-1.48 ± 0.1
GAUCAGCAAUAUUACGAACG	-0.118 ± 0.16	0.507 ± 0.17
GAUCAGCAAUAUUACGACAG	-3.24 ± 0.23	-1.49 ± 0.28
GAUCAGCAAUAUUACGACUC	-0.0915 ± 0.14	-0.146 ± 0.15
GAUCAGCAAUAUUACGAGAA	-1.89 ± 0.17	-1.16 ± 0.14
GAUCAGCAAUAUUACGAGCC	-0.966 ± 0.074	-1.1 ± 0.093
GAUCAGCAAUAUUACGAGCU	-1.42 ± 0.15	-0.233 ± 0.15
GAUCAGCAAUAUUACGAGGC		-1.92 ± 0.23
GAUCAGCAAUAUUACGAGGU	-2.98 ± 0.24	-2.84 ± 0.22
GAUCAGCAAUAUUACGAGUC	-3.31 ± 0.29	-0.73 ± 0.16
GAUCAGCAAUAUUACGAUCU	-4.13 ± 0.42	-1.8 ± 0.26
GAUCAGCAAUAUUACGCAAU	-1.56 ± 0.1	0.129 ± 0.11
GAUCAGCAAUAUUACGCAUG	-0.141 ± 0.095	0.865 ± 0.14
GAUCAGCAAUAUUACGCCCU	-0.299 ± 0.069	0.418 ± 0.084
GAUCAGCAAUAUUACGCCUC	-1.36 ± 0.18	-0.876 ± 0.23
